Results on 5 molecules are retold here after patent US20260014245A1 (MAX DELBRUECK CENTRUM F R MOLEKULARE MEDIZIN IN DER …, published 2026).

Experiment [1] addresses T1, MERS-CoV RBD (wild type, amino acids G372-L588, AviTag, Twin Strep tag, 6xHis) (MERS-CoV). Nature of the experiment: human DPP4.
In experiment [2] the target is T1, MERS-CoV RBD (wild type, amino acids …). Nature of the experiment: serum pull-down with RBD coated beads.
Experiment [3] has the same target. Nature of the experiment: ELISA, anti Twin-Strep readout OD 405 nm (the Twin-Strep-tagged RBD is detected).
The target is the same in experiment [4]. Nature of the experiment: ELISA on coated RBD, antibody titrated, anti human IgG OD 405 nm. On the technique in general: ELISA stands for enzyme-linked immunosorbent assay.

B1: recombinant human DPP4 with an N-terminal 8xHis-tag (hDPP4-N'His) (receptor)
chain: HHHHHHHHGGGSGGGSGGGSDSRKTYTLTDYLKNTYRLKLYSLRWISDHEYLYKQENNILVFNAEYGNSSVFLENSTFDEFGHSINDYSISPDGQFILLEYNYVKQWRHSYTASYDIYDLNKRQLITEERIPNNTQWVTWSPVGHKLAYVWNNDIYVKIEPNLPSYRITWTGKEDIIYNGITDWVYEEEVFSAYSALWWSPNGTFLAYAQFNDTEVPLIEYSFYSDESLQYPKTVRVPYPKAGAVNPTVKFFVVNTDSLSSVTNATSIQITAPASMLIGDHYLCDVTWATQERISLQWLRRIQNYSVMDICDYDESSGRWNCLVARQHIEMSTTGWVGRFRPSEPHFTLDGNSFYKIISNEEGYRHICYFQIDKKDCTFITKGTWEVIGIEALTSDYLYYISNEYKGMPGGRNLYKIQLSDYTKVTCLSCELNPERCQYYSVSFSKEAKYYQLRCSGPGLPLYTLHSSVNDKGLRVLEDNSALDKMLQNVQMPSKKLDFIILNETKFWYQMILPPHFDKSKKYPLLLDVYAGPCSQKADTVFRLNWATYLASTENIIVASFDGRGSGYQGDKIMHAINRRLGTFEVEDQIEAARQFSKMGFVDNKRIAIWGWSYGGYVTSMVLGSGSGVFKCGIAVAPVSRWEYYDSVYTERYMGLPTPEDNLDHYRNSTVMSRAENFKQVEYLLIHGTADDNVHFQQSAQISKALVDVGVDFQAMWYTDEDHGIASSTAHQHIYTHMSHFIKQCFSLP
notes: range 38-766
A word on the Kd: it is a measure of binding affinity in units of concentration. A higher Kd goes with lower affinity. In turn, B1 displayed a Kd in experiment [1] of 7.8 nM.

B2: circulating mouse DPP4 (from serum) (receptor)
chain: SRRTYSLADYLKSTFRVKSYSLWWVSDFEYLYKQENNILLLNAEHGNSSIFLENSTFESFGYHSVSPDRLFVLLEYNYVKQWRHSYTASYNIYDVNKRQLITEEKIPNNTQWITWSPEGHKLAYVWKNDIYVKVEPHLPSHRITSTGEENVIYNGITDWVYEEEVFGAYSALWWSPNNTFLAYAQFNDTGVPLIEYSFYSDESLQYPKTVWIPYPKAGAVNPTVKFFIVNIDSLSSSSSAAPIQIPAPASVARGDHYLCDVVWATEERISLQWLRRIQNYSVMAICDYDKINLTWNCPSEQQHVEMSTTGWVGRFRPAEPHFTSDGSSFYKIISDKDGYKHICHFPKDKKDCTFITKGAWEVISIEALTSDYLYYISNQYKEMPGGRNLYKIQLTDHTNVKCLSCDLNPERCQYYAVSFSKEAKYYQLGCWGPGLPLYTLHRSTDHKELRVLEDNSALDRMLQDVQMPSKKLDFIVLNETRFWYQMILPPHFDKSKKYPLLLDVYAGPCSQKADASFRLNWATYLASTENIIVASFDGRGSGYQGDKIMHAINRRLGTLEVEDQIEAARQFVKMGFVDSKRVAIWGWSYGGYVTSMVLGSGSGVFKCGIAVAPVSRWEYYDSVYTERYMGLPIPEDNLDHYRNSTVMSRAEHFKQVEYLLIHGTADDNVHFQQSAQISKALVDAGVDFQAMWYTDEDHGIASSTAHQHIYSHMSHFLQQCFSLH
On to B2, for which the binding result in experiment [2] was “no binding”.

B3: recombinant mouse DPP4 (mDPP4) (receptor)
chain: SKDEAAADSRRTYSLADYLKSTFRVKSYSLWWVSDFEYLYKQENNILLLNAEHGNSSIFLENSTFESFGYHSVSPDRLFVLLEYNYVKQWRHSYTASYNIYDVNKRQLITEEKIPNNTQWITWSPEGHKLAYVWKNDIYVKVEPHLPSHRITSTGEENVIYNGITDWVYEEEVFGAYSALWWSPNNTFLAYAQFNDTGVPLIEYSFYSDESLQYPKTVWIPYPKAGAVNPTVKFFIVNIDSLSSSSSAAPIQIPAPASVARGDHYLCDVVWATEERISLQWLRRIQNYSVMAICDYDKINLTWNCPSEQQHVEMSTTGWVGRFRPAEPHFTSDGSSFYKIISDKDGYKHICHFPKDKKDCTFITKGAWEVISIEALTSDYLYYISNQYKEMPGGRNLYKIQLTDHTNVKCLSCDLNPERCQYYAVSFSKEAKYYQLGCWGPGLPLYTLHRSTDHKELRVLEDNSALDRMLQDVQMPSKKLDFIVLNETRFWYQMILPPHFDKSKKYPLLLDVYAGPCSQKADASFRLNWATYLASTENIIVASFDGRGSGYQGDKIMHAINRRLGTLEVEDQIEAARQFVKMGFVDSKRVAIWGWSYGGYVTSMVLGSGSGVFKCGIAVAPVSRWEYYDSVYTERYMGLPIPEDNLDHYRNSTVMSRAEHFKQVEYLLIHGTADDNVHFQQSAQISKALVDAGVDFQAMWYTDEDHGIASSTAHQHIYSHMSHFLQQCFSLH
As for B3, in experiment [3], the binding result is “no binding (tested: about 30 ng/µL)”.

B4: LCA60 (antibody, V domains shown)
VH: EVQLLESGGGLVKPGGSLRLSCEASGLTFSNVWMSWVRQAPGKGLEWVGRIKRKSEGATTDYGAPVKGRFTLSRDDSKNTVYLQMNSLKIDDTAVYYCSTLTRGGDVWSSSYYFDYWGQGALVTVSS
VL: QSALTQPASVSGSPGQSITISCTGTSSDVGTYDLVSWYQQHPGKSPKLMIYADIKRPSGVSHRFSGSKSGNTASLTISGLQSADEADYYCCLYAGSSTSVIFGGGTKVT
Usually EC50 (read off the curve) stands for the concentration needed to bring the measured effect to its halfway point. Lower therefore signals greater potency. As for B4, the “EC50 (read off the curve)” value in experiment [4] was around 0.03 µg/mL.

B5: D12 (antibody, V domains shown)
VH: EVKLVESGGGLVKPGGSLKLSCAASGFTFSSYAMSWVRQTPEKRLEWVATISSGGTYTYYPDSVKGRFTISRDNAENTLYLQMSSLRSEDTAMYYCVRDGNSMDYWGQGTSVTVSS
VL: DIQMTQTTSSLSASLGDRVTIICRASQDINNYLNWYQKPDGTVKLLIYYTSRLHSGVPSRFSGSGSGSDYSLTISNLEQEDIATYFCQQANTLPPTFGAGTKLELR
Consider B5, for which, in experiment [4], the “EC50 (read off the curve)” value was around 0.04 µg/mL.
